From paper PMC9248843, “Structural and biophysical studies of new L-asparaginase variants: lessons from random mutagenesis of the prototypic Escherichia coli Ntn-amidohydrolase” (Acta Crystallographica. Section D, Structural Biology, 2022)

T1: EcAIII α subunit (∼20 kDa) (Escherichia coli, UniProt P37595 1-178)
T1 construct: EcAIII of Escherichia coli, α subunit: cut product of the precursor up to the scissile bond Gly178-Thr179; the linker is partly degraded, residues 158-178 are not visible in the structures; also called subunit α; source: E. coli BL21 Gold, purified (DEAE-Sepharose, SEC); formed by autocleavage of the precursor
T1 sequence (looked up): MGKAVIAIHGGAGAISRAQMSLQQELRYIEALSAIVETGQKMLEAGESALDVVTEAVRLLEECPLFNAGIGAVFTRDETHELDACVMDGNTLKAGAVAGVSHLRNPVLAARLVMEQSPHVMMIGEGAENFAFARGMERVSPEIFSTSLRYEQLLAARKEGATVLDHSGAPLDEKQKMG


Legend:
[1] = biological target: the molecule itself; assay: SEC; SEC profiles of Supplementary Fig. S4; before biophysical measurements proteins were run on Superdex 75 10/300 GL in 20 mM phosphate buffer pH 7.5
[2] = biological target: the molecule itself; assay: crystal structure; hanging-drop vapor diffusion at 20°C; 20–30% PEG 4000 or PEG 6000, 0.2 M MgCl2, 100 mM Tris–HCl pH 8.5; protein 10–15 mg/ml; space group P212121
[3] = biological target: T1, EcAIII α subunit (∼20 kDa); assay: as above; settings: both partners purified

Binder	binding result [2]	further results
EcAIII variant RDM1-43, unprocessed immature precursor (enzyme, Escherichia coli, UniProt P37595 1-321, looked up, EcAIII of Escherichia coli, uncleaved immature precursor (α and β on one chain, linker intact), with the substitutions of RDM1-43 (Ser211 kept); No ability to process into α/β subunits; EcAIII gene in pET-11d; source: E. coli BL21 Gold, purified (DEAE-Sepharose, SEC)) MGKAVIAIHGGAGAISRAQMSLQQELRYIEALSAIVETGQKMLEAGESALDVVTEAVRLLEECPLFNAGIGAVFTRDETHELDACVMDGNTLKAGAVAGVSHLRNPVLAARLVMEQSPHVMMIGEGAENFAFARGMERVSPEIFSTSLRYEQLLAARKEGATVLDHSGAPLDEKQKMGTVGAVALDLDGNLAAATSTGGMTNKLPVGVGSSPLVGAGCYANNASVAVSCTGTGEVFIRALAAYDIAALMDYGGLSLAEACERVVMEKLPALGGSGGLIAIDHEGNVALPFNTEGMYRAWGYAGDTPTTGIYREKGDTVATQ		binding result [1]: binds
EcAIII variant RDM1-46, unprocessed immature precursor (enzyme, Escherichia coli, UniProt P37595 1-321, looked up, EcAIII of Escherichia coli, uncleaved immature precursor (α and β on one chain, linker intact), with the substitutions of RDM1-46 (Ser211 kept); No ability to process into α/β subunits; EcAIII gene in pET-11d; source: E. coli BL21 Gold, purified (DEAE-Sepharose, SEC)) MGKAVIAIHGGAGAISRAQMSLQQELRYIEALSAIVETGQKMLEAGESALDVVTEAVRLLEECPLFNAGIGAVFTRDETHELDACVMDGNTLKAGAVAGVSHLRNPVLAARLVMEQSPHVMMIGEGAENFAFARGMERVSPEIFSTSLRYEQLLAARKEGATVLDHSGAPLDEKQKMGTVGAVALDLDGNLAAATSTGGMTNKLPLDVGLSPLVGAGCYANNASVAVSCTGTGEVFIRALAAYDIAALMDYGGLSLAEACERVVMEKLPALGGSGGLIAIDHEGNVALPFNTEGMYRAWGYAGDTPTTGIYREKGDTVATQ		binding result [1]: binds
wild-type EcAIII, mature (αβ)2 heterotetramer (class 2 L-asparaginase of Escherichia coli) (complex, EcAIII of Escherichia coli, α subunit: cut product of the precursor up to the scissile bond Gly178-Thr179; the linker is partly degraded, residues 158-178 are not visible in the structures; EcAIII of Escherichia coli, β subunit: cut product of the precursor beginning at the nucleophilic Thr179; Gene in pET-11d; no tag is mentioned; Dimer of two αβ heterodimers formed by autocleavage of the …) chain 1: MGKAVIAIHGGAGAISRAQMSLQQELRYIEALSAIVETGQKMLEAGESALDVVTEAVRLLEECPLFNAGIGAVFTRDETHELDACVMDGNTLKAGAVAGVSHLRNPVLAARLVMEQSPHVMMIGEGAENFAFARGMERVSPEIFSTSLRYEQLLAARKEGATVLDHSGAPLDEKQKMG chain 2: TVGAVALDLDGNLAAATSTGGMTNKLPGRVGDSPLVGAGCYANNASVAVSCTGTGEVFIRALAAYDIAALMDYGGLSLAEACERVVMEKLPALGGSGGLIAIDHEGNVALPFNTEGMYRAWGYAGDTPTTGIYREKGDTVATQ	binds	
EcAIII variant RDM1-24, mature (processed into α/β subunits) (complex, Escherichia coli, EcAIII of Escherichia coli, α subunit: cut product up to the scissile bond Gly178-Thr179; residues 158-178 not visible in the structure; EcAIII of Escherichia coli, β subunit beginning at Thr179, with the substitutions of RDM1-24; source: E. coli BL21 Gold, purified (DEAE-Sepharose, SEC); copies: 2 + 2) chain 1: MGKAVIAIHGGAGAISRAQMSLQQELRYIEALSAIVETGQKMLEAGESALDVVTEAVRLLEECPLFNAGIGAVFTRDETHELDACVMDGNTLKAGAVAGVSHLRNPVLAARLVMEQSPHVMMIGEGAENFAFARGMERVSPEIFSTSLRYEQLLAARKEGATVLDHSGAPLDEKQKMG chain 2: TVGAVALDLDGNLAAATSTGGMTNKLPGAVGSTPLVGAGCYANNASVAVSCTGTGEVFIRALAAYDIAALMDYGGLSLAEACERVVMEKLPALGGSGGLIAIDHEGNVALPFNTEGMYRAWGYAGDTPTTGIYREKGDTVATQ	binds	
EcAIII variant RDM1-3, mature (processed into α/β subunits) (complex, Escherichia coli, EcAIII of Escherichia coli, α subunit: cut product up to the scissile bond Gly178-Thr179; residues 158-178 not visible in the structure; EcAIII of Escherichia coli, β subunit beginning at Thr179, with the substitutions of RDM1-3; source: E. coli BL21 Gold, purified (DEAE-Sepharose, SEC); copies: 2 + 2) chain 1: MGKAVIAIHGGAGAISRAQMSLQQELRYIEALSAIVETGQKMLEAGESALDVVTEAVRLLEECPLFNAGIGAVFTRDETHELDACVMDGNTLKAGAVAGVSHLRNPVLAARLVMEQSPHVMMIGEGAENFAFARGMERVSPEIFSTSLRYEQLLAARKEGATVLDHSGAPLDEKQKMG chain 2: TVGAVALDLDGNLAAATSTGGMTNKLPHTVGPQPLVGAGCYANNASVAVSCTGTGEVFIRALAAYDIAALMDYGGLSLAEACERVVMEKLPALGGSGGLIAIDHEGNVALPFNTEGMYRAWGYAGDTPTTGIYREKGDTVATQ	binds	
EcAIII variant RDM1-29, mature (processed into α/β subunits) (complex, Escherichia coli, EcAIII of Escherichia coli, α subunit: cut product up to the scissile bond Gly178-Thr179; residues 158-178 not visible in the structure; EcAIII of Escherichia coli, β subunit beginning at Thr179, with the substitutions of RDM1-29; source: E. coli BL21 Gold, purified (DEAE-Sepharose, SEC); copies: 2 + 2) chain 1: MGKAVIAIHGGAGAISRAQMSLQQELRYIEALSAIVETGQKMLEAGESALDVVTEAVRLLEECPLFNAGIGAVFTRDETHELDACVMDGNTLKAGAVAGVSHLRNPVLAARLVMEQSPHVMMIGEGAENFAFARGMERVSPEIFSTSLRYEQLLAARKEGATVLDHSGAPLDEKQKMG chain 2: TVGAVALDLDGNLAAATSTGGMTNKLPCSVGLVPLVGAGCYANNASVAVSCTGTGEVFIRALAAYDIAALMDYGGLSLAEACERVVMEKLPALGGSGGLIAIDHEGNVALPFNTEGMYRAWGYAGDTPTTGIYREKGDTVATQ	binds	
EcAIII variant RDM1-38, mature (processed into α/β subunits) (complex, Escherichia coli, EcAIII of Escherichia coli, α subunit: cut product up to the scissile bond Gly178-Thr179; residues 158-178 not visible in the structure; EcAIII of Escherichia coli, β subunit beginning at Thr179, with the substitutions of RDM1-38; source: E. coli BL21 Gold, purified (DEAE-Sepharose, SEC); copies: 2 + 2) chain 1: MGKAVIAIHGGAGAISRAQMSLQQELRYIEALSAIVETGQKMLEAGESALDVVTEAVRLLEECPLFNAGIGAVFTRDETHELDACVMDGNTLKAGAVAGVSHLRNPVLAARLVMEQSPHVMMIGEGAENFAFARGMERVSPEIFSTSLRYEQLLAARKEGATVLDHSGAPLDEKQKMG chain 2: TVGAVALDLDGNLAAATSTGGMTNKLPGCVGSVPLVGAGCYANNASVAVSCTGTGEVFIRALAAYDIAALMDYGGLSLAEACERVVMEKLPALGGSGGLIAIDHEGNVALPFNTEGMYRAWGYAGDTPTTGIYREKGDTVATQ	binds	
EcAIII variant RDM1-37, mature (processed into α/β subunits) (complex, Escherichia coli, EcAIII of Escherichia coli, α subunit: cut product up to the scissile bond Gly178-Thr179; residues 158-178 not visible in the structure; EcAIII of Escherichia coli, β subunit beginning at Thr179, with the substitutions of RDM1-37 (Ser211 kept); source: E. coli BL21 Gold, purified (DEAE-Sepharose, SEC); copies: 2 + 2) chain 1: MGKAVIAIHGGAGAISRAQMSLQQELRYIEALSAIVETGQKMLEAGESALDVVTEAVRLLEECPLFNAGIGAVFTRDETHELDACVMDGNTLKAGAVAGVSHLRNPVLAARLVMEQSPHVMMIGEGAENFAFARGMERVSPEIFSTSLRYEQLLAARKEGATVLDHSGAPLDEKQKMG chain 2: TVGAVALDLDGNLAAATSTGGMTNKLPSTVGSSPLVGAGCYANNASVAVSCTGTGEVFIRALAAYDIAALMDYGGLSLAEACERVVMEKLPALGGSGGLIAIDHEGNVALPFNTEGMYRAWGYAGDTPTTGIYREKGDTVATQ	binds	
EcAIII β subunit (∼15 kDa), wild type (domain or fragment, Escherichia coli, UniProt P37595 179-321, looked up, EcAIII of Escherichia coli, β subunit: cut product of the precursor beginning at the nucleophilic Thr179; also called subunit β; source: E. coli BL21 Gold, purified (DEAE-Sepharose, SEC); formed by autocleavage of the precursor) TVGAVALDLDGNLAAATSTGGMTNKLPGRVGDSPLVGAGCYANNASVAVSCTGTGEVFIRALAAYDIAALMDYGGLSLAEACERVVMEKLPALGGSGGLIAIDHEGNVALPFNTEGMYRAWGYAGDTPTTGIYREKGDTVATQ		binding result [3]: binds
